Assay results from paper PMC12637224, “The nonconserved integrin cytoplasmic region determines integrin subtype–specific characteristics by modulating talin1 binding kinetics” (The Journal of Biological Chemistry, 2025).

Experiments:
[1] = target: HaloTag-fused talin1 (HT-talin1) expressed in BAF/LFA1 cells (UniProt P26039); experiment: single-molecule binding analysis (HT-Tln1 imaging in BAF/LFA1 cells); settings: ICAM1+PMA, read off a plot
[2] = target: T1, GST-fused talin1 FERM F2–F3 domain; experiment: BLI
T1 chain: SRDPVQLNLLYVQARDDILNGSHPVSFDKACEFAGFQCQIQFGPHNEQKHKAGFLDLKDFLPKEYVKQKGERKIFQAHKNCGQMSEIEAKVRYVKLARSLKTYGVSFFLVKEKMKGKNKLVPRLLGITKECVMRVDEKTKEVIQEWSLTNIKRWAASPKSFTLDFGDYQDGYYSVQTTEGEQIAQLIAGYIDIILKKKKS

[3] = target: T1, GST-fused talin1 FERM F2–F3 domain; experiment: BLI
[4] = target: T2, HaloTag-fused talin1 (HT-talin1), endogenous knock-in in mouse primary T cells (mouse (endogenous knock-in in mouse T …, UniProt P26039 1-2541, HaloTag labelled with HT SaraFluor 650T Ligand)); experiment: Th2 cells, on ICAM1
[5] = target: T2, HaloTag-fused talin1 (HT-talin1), …; experiment: naive T cells, on ICAM1
[6] = target: T2, HaloTag-fused talin1 (HT-talin1), …; experiment: naive T cells, on ICAM1; remark: listed apart in the source
[7] = target: T2, HaloTag-fused talin1 (HT-talin1), …; experiment: activated T cells, on ICAM1
[8] = target: T2, HaloTag-fused talin1 (HT-talin1), …; experiment: Th2 cells, on PECAM1
[9] = target: T2, HaloTag-fused talin1 (HT-talin1), …; experiment: naive T cells, on PECAM1
[10] = target: T3, GST-fused talin1 FERM F2–F3 domain (GST carrier omitted. F2-F3 limits are not given; 206-405 is the usual talin1 F2-F3 construct. Mouse is assumed because the other talin1 constructs in the paper are mouse.); experiment: BLI; Octet RH96; GST-talin1 FERM F2–F3 (10 μg/ml) immobilized on Octet GST Biosensors; synthetic integrin CT peptides at 4.9, 14.8, 44.4 and 133 μM as analytes in 25 mM Tris–HCl, 150 mM NaCl, 0.05% Triton X-100, pH 7.5; binding to GST alone subtracted; settings: both partners purified
T3 chain: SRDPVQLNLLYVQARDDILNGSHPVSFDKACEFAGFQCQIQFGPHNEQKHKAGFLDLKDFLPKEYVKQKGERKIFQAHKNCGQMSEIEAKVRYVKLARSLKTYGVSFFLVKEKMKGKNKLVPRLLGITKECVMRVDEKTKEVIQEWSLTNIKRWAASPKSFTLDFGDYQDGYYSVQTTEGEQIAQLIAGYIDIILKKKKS

[11] = β2β7: n = 1453, β2β7-NND: n = 1726, parent: est. 19

Chain of HaloTag-fused talin1 (HT-talin1) expressed in BAF/LFA1 cells (P26039 whole entry, looked up, the tested form may be a part): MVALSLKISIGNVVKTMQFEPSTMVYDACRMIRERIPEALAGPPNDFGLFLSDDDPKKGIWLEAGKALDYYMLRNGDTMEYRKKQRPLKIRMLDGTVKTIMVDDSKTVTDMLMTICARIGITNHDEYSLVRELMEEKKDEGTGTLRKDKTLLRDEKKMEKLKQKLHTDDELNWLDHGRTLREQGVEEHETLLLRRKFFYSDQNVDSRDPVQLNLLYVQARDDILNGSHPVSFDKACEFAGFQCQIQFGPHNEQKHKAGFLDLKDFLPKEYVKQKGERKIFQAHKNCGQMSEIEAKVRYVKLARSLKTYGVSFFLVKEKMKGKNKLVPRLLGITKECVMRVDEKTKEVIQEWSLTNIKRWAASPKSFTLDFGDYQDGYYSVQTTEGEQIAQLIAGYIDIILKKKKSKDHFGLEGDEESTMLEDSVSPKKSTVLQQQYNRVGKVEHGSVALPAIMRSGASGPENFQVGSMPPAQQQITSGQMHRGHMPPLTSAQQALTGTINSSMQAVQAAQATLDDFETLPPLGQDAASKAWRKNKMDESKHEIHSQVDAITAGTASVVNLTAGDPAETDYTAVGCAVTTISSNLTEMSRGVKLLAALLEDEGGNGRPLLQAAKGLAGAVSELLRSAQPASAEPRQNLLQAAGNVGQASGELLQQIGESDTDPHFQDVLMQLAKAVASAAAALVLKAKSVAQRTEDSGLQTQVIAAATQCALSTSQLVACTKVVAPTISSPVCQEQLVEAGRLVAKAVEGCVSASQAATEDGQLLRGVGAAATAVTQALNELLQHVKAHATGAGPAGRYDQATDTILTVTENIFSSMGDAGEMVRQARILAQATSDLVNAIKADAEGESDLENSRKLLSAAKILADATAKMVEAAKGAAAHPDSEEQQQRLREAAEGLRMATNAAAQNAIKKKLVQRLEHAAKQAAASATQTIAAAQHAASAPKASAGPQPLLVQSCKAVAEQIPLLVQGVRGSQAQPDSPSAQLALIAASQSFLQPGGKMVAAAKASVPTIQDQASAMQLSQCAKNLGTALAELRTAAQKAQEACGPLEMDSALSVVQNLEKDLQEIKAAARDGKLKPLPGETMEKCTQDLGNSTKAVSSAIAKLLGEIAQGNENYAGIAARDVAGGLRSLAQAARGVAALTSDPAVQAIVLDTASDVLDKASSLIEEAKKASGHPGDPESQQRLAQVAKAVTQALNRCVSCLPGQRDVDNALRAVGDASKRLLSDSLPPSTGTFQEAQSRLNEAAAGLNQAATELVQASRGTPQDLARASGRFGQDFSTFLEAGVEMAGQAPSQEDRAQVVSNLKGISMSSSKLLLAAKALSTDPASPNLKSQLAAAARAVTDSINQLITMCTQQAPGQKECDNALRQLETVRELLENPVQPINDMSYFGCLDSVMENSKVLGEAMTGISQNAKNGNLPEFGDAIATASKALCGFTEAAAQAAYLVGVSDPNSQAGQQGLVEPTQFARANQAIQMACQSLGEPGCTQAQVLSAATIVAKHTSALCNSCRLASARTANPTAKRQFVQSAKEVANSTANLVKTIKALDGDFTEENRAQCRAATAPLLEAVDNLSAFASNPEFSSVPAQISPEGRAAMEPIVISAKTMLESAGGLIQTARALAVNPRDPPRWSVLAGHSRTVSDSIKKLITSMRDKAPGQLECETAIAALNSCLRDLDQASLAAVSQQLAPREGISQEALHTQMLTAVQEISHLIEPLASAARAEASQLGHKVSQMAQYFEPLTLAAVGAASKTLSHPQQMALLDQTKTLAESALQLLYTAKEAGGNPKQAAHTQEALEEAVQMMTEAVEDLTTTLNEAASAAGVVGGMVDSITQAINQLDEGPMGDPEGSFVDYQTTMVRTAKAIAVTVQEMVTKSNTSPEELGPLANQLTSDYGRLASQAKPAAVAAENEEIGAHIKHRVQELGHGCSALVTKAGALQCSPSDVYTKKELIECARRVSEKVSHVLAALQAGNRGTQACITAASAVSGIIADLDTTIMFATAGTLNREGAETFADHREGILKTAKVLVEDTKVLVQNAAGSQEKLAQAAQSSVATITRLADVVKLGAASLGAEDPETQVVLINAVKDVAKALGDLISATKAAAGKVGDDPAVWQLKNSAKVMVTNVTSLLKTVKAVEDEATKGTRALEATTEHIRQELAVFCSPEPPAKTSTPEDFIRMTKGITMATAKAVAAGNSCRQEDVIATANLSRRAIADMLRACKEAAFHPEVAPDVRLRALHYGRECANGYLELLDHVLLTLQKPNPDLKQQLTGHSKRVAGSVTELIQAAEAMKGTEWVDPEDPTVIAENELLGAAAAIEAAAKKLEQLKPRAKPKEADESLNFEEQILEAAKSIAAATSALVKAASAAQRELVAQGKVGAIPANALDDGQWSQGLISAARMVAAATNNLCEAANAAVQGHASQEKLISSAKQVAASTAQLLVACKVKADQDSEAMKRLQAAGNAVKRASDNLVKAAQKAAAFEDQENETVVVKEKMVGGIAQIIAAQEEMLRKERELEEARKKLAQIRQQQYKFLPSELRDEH

## chimeric LFA1 αLα4/β2β7 (cytoplasmic tails of αL and β2 replaced with those of α4 and β7) (from UniProt P13612;P26010) KQDS to NND (β7 WN linker)
[1]; β2β7: n = 22, β2β7-NND: n = 14, parent: est. 1.2
  other: binding frequency (events/area): 4.7 µm-2
[1]; [11]
  other: frequency of binding time 1 to 10 s (yellow segment): 23%
  other: frequency of binding time, top of stacked bar (1 to 10 s plus >10 s): 24%

B1: synthetic integrin β1 cytoplasmic tail peptide (peptide)
peptide: KLLMIIHDRREFAKFEKEKMNAKWDTGENPIYKSAVTTVVNPKYEGK
modifications: GST carrier omitted. F2-F3 limits are not given; 206-405 is the usual talin1 F2-F3 construct. Mouse is assumed because the other talin1 constructs in the paper are mouse.
[2]
  Kd: 90.2 µM
[3]
  koff: 0.00509 s⁻¹

B2: synthetic integrin β3 cytoplasmic tail peptide (peptide)
peptide: KLLITIHDRKEFAKFEEERARAKWDTANNPLYKEATSTFTNITYRGT
modifications: GST carrier omitted. F2-F3 limits are not given; 206-405 is the usual talin1 F2-F3 construct. Mouse is assumed because the other talin1 constructs in the paper are mouse.
[2]
  Kd: 133 µM
[3]
  koff: 0.00458 s⁻¹

B3: synthetic integrin β2 cytoplasmic tail peptide (peptide)
peptide: KALIHLSDLREYRRFEKEKLKSQWNNDNPLFKSATTTVMNPKFAES
modifications: GST carrier omitted. F2-F3 limits are not given; 206-405 is the usual talin1 F2-F3 construct. Mouse is assumed because the other talin1 constructs in the paper are mouse.
[2]
  Kd: 43.5 µM
[3]
  koff: 0.00398 s⁻¹

B4: LFA1 (αL/β2 integrin), endogenous on mouse primary T cells (receptor)
chain 1: YNLDTRPTQSFLAQAGRHFGYQVLQIEDGVVVGAPGEGDNTGGLYHCRTSSEFCQPVSLHGSNHTSKYLGMTLATDAAKGSLLACDPGLSRTCDQNTYLSGLCYLFPQSLEGPMLQNRPAYQECMKGKVDLVFLFDGSQSLDRKDFEKILEFMKDVMRKLSNTSYQFAAVQFSTDCRTEFTFLDYVKQNKNPDVLLGSVQPMFLLTNTFRAINYVVAHVFKEESGARPDATKVLVIITDGEASDKGNISAAHDITRYIIGIGKHFVSVQKQKTLHIFASEPVEEFVKILDTFEKLKDLFTDLQRRIYAIEGTNRQDLTSFNMELSSSGISADLSKGHAVVGAVGAKDWAGGFLDLREDLQGATFVGQEPLTSDVRGGYLGYTVAWMTSRSSRPLLAAGAPRYQHVGQVLLFQAPEAGGRWNQTQKIEGTQIGSYFGGELCSVDLDQDGEAELLLIGAPLFFGEQRGGRVFTYQRRQSLFEMVSELQGDPGYPLGRFGAAITALTDINGDRLTDVAVGAPLEEQGAVYIFNGKPGGLSPQPSQRIQGAQVFPGIRWFGRSIHGVKDLGGDRLADVVVGAEGRVVVLSSRPVVDVVTELSFSPEEIPVHEVECSYSAREEQKHGVKLKACFRIKPLTPQFQGRLLANLSYTLQLDGHRMRSRGLFPDGSHELSGNTSITPDKSCLDFHFHFPICIQDLISPINVSLNFSLLEEEGTPRDQKVGRAMQPILRPSIHTVTKEIPFEKNCGEDKKCEANLTLSSPARSGPLRLMSSASLAVEWTLSNSGEDAYWVRLDLDFPRGLSFRKVEMLQPHSRMPVSCEELTEGSSLLTKTLKCNVSSPIFKAGQEVSLQVMFNTLLNSSWEDFVELNGTVHCENENSSLQEDNSAATHIPVLYPVNILTKEQENSTLYISFTPKGPKTQQVQHVYQVRIQPSAYDHNMPTLEALVGVPWPHSEDPITYTWSVQTDPLVTCHSEDLKRPSSEAEQPCLPGVQFRCPIVFRREILIQVTGTVELSKEIKASSTLSLCSSLSVSFNSSKHFHLYGSKASEAQVLVKVDLIHEKEMLHVYVLSGIGGLVLLFLIFLALYKVGFFKRNLKEKMEADGGVPNGSPPEDTDPLAVPGEETKDMGCLEPLRESDKD
chain 2: QECTKYKVSSCRDCIQSGPGCSWCQKLNFTGPGEPDSLRCDTRAQLLLKGCPADDIMDPRSIANPEFDQRGQRKQLSPQKVTLYLRPGQAAAFNVTFRRAKGYPIDLYYLMDLSYSMLDDLNNVKKLGGDLLQALNEITESGRIGFGSFVDKTVLPFVNTHPEKLRNPCPNKEKACQPPFAFRHVLKLTDNSNQFQTEVGKQLISGNLDAPEGGLDAIMQVAACPEEIGWRNVTRLLVFATDDGFHFAGDGKLGAILTPNDGRCHLEDNMYKRSNEFDYPSVGQLAHKLSESNIQPIFAVTKKMVKTYEKLTEIIPKSAVGELSDDSSNVVQLIKNAYYKLSSRVFLDHSTLPDTLKVTYDSFCSNGASSIGKSRGDCDGVQINNPVTFQVKVMASECIQEQSFVIRALGFTDTVTVQVRPQCECQCRDQSREQSLCGGKGVMECGICRCESGYIGKNCECQTQGRSSQELERNCRKDNSSIVCSGLGDCICGQCVCHTSDVPNKEIFGQYCECDNVNCERYNSQVCGGSDRGSCNCGKCSCKPGYEGSACQCQRSTTGCLNARLVECSGRGHCQCNRCICDEGYQPPMCEDCPSCGSHCRDNHTSCAECLKFDKGPFEKNCSVQCAGMTLQTIPLKKKPCKERDSEGCWITYTLQQKDGRNIYNIHVEDSLECVKGPNVAAIVGGTVVGVVLIGVLLLVIWKALTHLTDLREYRRFEKEKLKSQWNNDNPLFKSATTTVMNPKFAES
[4]
  koff: 0.17 s⁻¹
[5]
  koff: 0.316 s⁻¹
[6]
  koff: 0.288 s⁻¹
[7]
  koff: 0.279 s⁻¹

B5: synthetic integrin β7 cytoplasmic tail peptide (peptide)
peptide: RLSVEIYDRREYSRFEKEQQQLNWKQDSNPLYKSAITTTINPRFQEADSPTL
modifications: GST carrier omitted. F2-F3 limits are not given; 206-405 is the usual talin1 F2-F3 construct. Mouse is assumed because the other talin1 constructs in the paper are mouse.
[2]
  Kd: 124 µM
[3]
  koff: 0.00597 s⁻¹

B6: αV/β3 integrin, endogenous on mouse primary T cells (receptor)
chain 1: FNLDVESPAEYAGPEGSYFGFAVDFFEPSTSSRMFLLVGAPKANTTQPGIVEGGQVLKCECSSSRRCQPIEFDSTGNRDYAKDDPLEFKSHQWFGASVRSKQDKILACAPLYHWRTEMKQEREPVGTCFLQDGTKTVEYAPCRSKNIDADGQGFCQGGFSIDFTKADRVLLGGPGSFYWQGQLISDQVAEIISKYDPNVYSIKYNNQLATRTAQAIFDDSYLGYSVAVGDFNGDGIEDFVSGVPRAARTLGMVYIYDGKNMSSLHNFTGEQMAAYFGFSVAATDINGDDYADVFIGAPLFMDRGSDGKLQEVGQVSVSLQRAVGDFQTTKLNGFEVFARFGSAIAPLGDLDQDGFNDIAIAAPYGGEDKKGLVYIFNGRSTGLNSVPSQILEGQWAAQSMPPSFGYSMKGATDVDRNGYPDLVVGAFGVDRAVLYRARPVVTVNAGLEVYPSILNQDNKICPLPGTALKVSCFNVRFCLKADGKGTLPRKLHFQVELLLDKLKQKGAIRRALFLHNRSPVHSKTMTVFRGGQMQCEELVAYLRDESEFRDKLTPITIFMEYRLDQRTAADATGLQPILNQFTPANVSRQAHILLDCGEDNVCKPKLEVSVNSDQKKIYIGDDNPLTLTVKAQNQGEGAYEAELIVSIPPQADFIGVVRNNEALARLSCAFKTENQTRQVVCDLGNPMKAGTQLLAGLRFSVHQQSEMDTSVKFDLKIQSSNSFDNVSPVVSYKVDLAVLAAVEIRGVSSPDHIFLPIPNWEYKENPETEEDVGPIVQHIYELRNNGPSSFSKAILNLQWPYKYNNNTLLYILHYDIDGPMNCTADTEINPLRIKTPEKNDTAAAGQGERNHLITKRDLTLREGDVHTLGCGIAKCLQITCQVGRLDRGKSAILYVKSLLWTETFMNKENQNHSYSLKSSASFNIIEFPYKNLPIEDLFNSTLVTTNITWGIQPAPMPVPVWVIILAVLAGLLLLAVLVFVMYRMGFFKRVRPPQEEQEREQLQPHENGEGNSET
chain 2: ESNICTTRGVNSCQQCLAVSPVCAWCSDETLSQGSPRCNLKENLLKDNCAPESIEFPVSEAQILEARPLSSKGSGSSAQITQVSPQRIALRLRPDDSKIFSLQVRQVEDYPVDIYYLMDLSFSMKDDLSSIQTLGTKLASQMRKLTSNLRIGFGAFVDKPVSPYMYISPPQAIKNPCYNMKNACLPMFGYKHVLTLTDQVSRFNEEVKKQSVSRNRDAPEGGFDAIMQATVCDEKIGWRNDASHLLVFTTDAKTHIALDGRLAGIVLPNDGHCHIGTDNHYSASTTMDYPSLGLMTEKLSQKNINLIFAVTENVVSLYQNYSELIPGTTVGVLSDDSSNVLQLIVDAYGKIRSKVELEVRDLPEELSLSFNATCLNNEVIPGLKSCVGLKIGDTVSFSIEAKVRGCPQEKEQSFTIKPVGFKDSLTVQVTFDCDCACQAFAQPSSPRCNNGNGTFECGVCRCDQGWLGSMCECSEEDYRPSQQEECSPKEGQPICSQRGECLCGQCVCHSSDFGKITGKYCECDDFSCVRYKGEMCSGHGQCNCGDCVCDSDWTGYYCNCTTRTDTCMSTNGLLCSGRGNCECGSCVCVQPGSYGDTCEKCPTCPDACSFKKECVECKKFNRGTLHEENTCSRYCRDDIEQVKELTDTGKNAVNCTYKNEDDCVVRFQYYEDTSGRAVLYVVEEPECPKGPDILVVLLSVMGAILLIGLATLLIWKLLITIHDRKEFAKFEEERARAKWDTANNPLYKEATSTFTNITYRGT
[8]
  koff: 0.264 s⁻¹
[9]
  koff: 0.326 s⁻¹

B7: synthetic integrin β2 cytoplasmic tail peptide (peptide, UniProt P05107 724-769, looked up)
peptide: KALIHLSDLREYRRFEKEKLKSQWNNDNPLFKSATTTVMNPKFAES
notes: integrin β2 cytoplasmic tail peptide; also called β2 integrin; β2-CT; source: synthetic peptide (GenScript)
[10]
  fold higher affinity than m25 (β7 peptide): 3 fold
  fold higher affinity than m26 (β3 peptide): 3 fold
  fold higher affinity than m27 (β1 peptide): 2 fold
